What was measured:
[1] = biological target: T1, VraS sensor histidine kinase (GST-VraS) (Staphylococcus aureus, UniProt Q99SZ7); experiment: PK/LDH-coupled ATPase (autophosphorylation) assay, NADH absorbance at […] nm; Michaelis-Menten inhibition kinetics; assay type: biochemical
T1 construct: GST-tagged intracellular domain, amino acids 85 to 347 (DHp and CAT)

[2] = test system: Nc1ncnc2c1ncn2[C@@H]1O[C@H](COP(=O)(O)OP(=O)(O)OP(=O)(O)O)[C@@H](O)[C@H]1O; experiment: PK/LDH-coupled ATPase assay, Michaelis-Menten kinetics (KM of ATP); assay type: biochemical, Staphylococcus aureus; conditions: Mg2+ catalytic domain (CAT) that binds ATP

| IC50 [1] | Compound | Km [2] | Vmax [2] | kcat [2] | kcat/Km [2] |
| --- | --- | --- | --- | --- | --- |
| 41 ± 5 µM | CCCCCCCCCCCCCCCC[n+]1ccn(Cc2ccccc2)c1C [NH125] | – | – | – | – |
| – | VraS sensor histidine kinase (GST-VraS) (Staphylococcus aureus subsp. aureus N315) | 6.7 ± 1.6 µM | 0.000108 µmol/min | 0.0169 ± 0.0056 s⁻¹ | 2600 ± 600 M⁻¹ s⁻¹ |
